Reference: the nanobody polyreactivity screen of Harvey et al. (2022)

Experiment: yeast display, Sf9 membrane polyspecificity reagent, FACS + sequencing; frameworks hold sequencing errors
Procedure, shortened: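 Nanobodies came from a synthetic yeast display library in Saccharomyces cerevisiae BJ5465, induced with galactose for 36–48 hours and stained for 1 hour at 4 °C with 10% biotinylated, detergent-solubilized Sf9 membrane reagent. Cells were enriched on streptavidin microbeads and then FACS-sorted, with low and high (top ~1%) gates set on anti-HA fluorescence for expression and streptavidin fluorescence for reagent binding. Each polyreactivity label reflects the gate a clone came from. Genes were amplified by colony PCR, sequenced by MiSeq 2 × 250 and filtered by CDR length.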

Sequence	polyreactivity (PSR sort gate)
QVQLVESGGGLVQAGGSLRLSCAASGSIFYPNAMGWYRQAPGKERELVATIRRRGGSTYYADSVKGRFTISRDNAKNTVYLQMHSLKPEDTAVDYCAVGSPTPYRALDLYDYWGQGTQVTVSS	high polyreactivity
QVQLVESGGGLVQAGGSLRLSCAASGFTFKLNAMGWYRQAPGKERELVATISSSGGSTFYADSVKGRFTISRDNAKNTVYLQMNSLKPEDTAVYYCAADSGYGPYYYWGQGTQVTVSS	high polyreactivity
QVQLVESGGGLVQAGGSLRLSCAASGTFFIYAMGWYRQAPGKERELVATISSGGSTNYADSVKGRFTISRDNAKNTVYLQMNSLKPEDTAVYYCAAEWLYPHDGGYPRPMDYWGQGTQVTVSS	low polyreactivity
QVQLVETGGGLVQAGGSLRLSCAASGATFNANGMGWYRQAPGKERELVAAISQRAGRTYYADSVKGRFTISRDNAKNTVYLQMNSLKPEDTAVYYCAARYLGGYYFRYYYWGQGTQVTVSS	high polyreactivity
QVQLVESGGGLVQAGGSLRLSCADSGRIFGRYAMGWYRQAPGQERELVAGISARGGSTYYADSVKGRFTISRDNAKNTVYLQMNRLKPEDTAVYYCAAAGYRGGGYWGQGTQVTVSS	high polyreactivity
QVQLVESGGGLVQAGGSLRLSCADSGLILYTYAMGWYRQAPGKERELVAAIDWGDGDTYYADSVKGRFTISRDNAKNTVYLQMNSLKPEDTAVYYCAADLVGYSGYYFDEEYYWGQGTQVTVSS	high polyreactivity
QVQLQESGGGLVQAGGSLRLSCAASGTISDRAGMGWYRQAPAKNAIVATIDRGTNTNYADSVKGRFTISRDNAKNPVYLKMNSLKPEDTAVYNWAADGRYYIYLDYWGQGTQVTVSS	low polyreactivity
QVQLGESCGGLVQAGGSLRLSCAASGPIFRSYAMGWYRQAPGKERELVARITSGGSTNYADSVKGRFTISRDNAKNTVYLQMNSLKPEDSAVYYCARDWGKSEYDYWGQGTQVTVSS	high polyreactivity
QVQIVESGGGLVQAGGSHRISCAASGLIFQSNAMGWYRQAPGKESELVAAISTAGSTNYADSVKGRFTISRDNAKNTFYFQMNSLIPQDTAVYYFAAQVSTPYRYPRQMLYDSWGQGTQVTVSS	low polyreactivity
QVLLQESGGLVQAGCSLRMSCAASGSISTALSMGWYRQAPGKERELVSTISDGASTNYADSVKGRFTISRVNAKNTVYLQMNSLKPEDTAVYYCARYYFGNFGWGQGTQVTVSS	high polyreactivity
QVQLVESGGGLVQAGGSLRLSCAASGFTFVVYAMGWYSQAPGKERELVARITWSGGSTYYADSVKGRFTISRDNAKNTVYLQMNSLKPEDTAVYDCNTRRYPYDGIEHDYWGQGTQVTVSS	low polyreactivity
QVQLVESGGGLVQAGGSLRLSCDASGIIFPYYAMGWYRQAPGKERELVAGISSSGGITYADSVKGRFTISRDNAKNTVYLQMNSLNPEDTAVYYCNAEYQWLEYDYWGQGTQVTVSS	low polyreactivity
QVQLVESGGGLVQAGGSLRLSCAASGRIFGAYAMGWYRQAPGKERELVAAITSGGSTYADSVKGRFTISRDNAKNTVYLQMNSLKPEDTAVYYCAADLITRSDSWWTGWIWEYDYWGQGTQVTVSS	low polyreactivity
QVQLVESGGGLVQAGGSLRLSCAASGFIFRYYAMGWYRQAPGKERELVAAITNSGVSTYYADSVKGRFTISRDNAKNTVYLQMNSLKPEDTAVYYCAATYRTRTSQYDYWGQGTQVTVSS	high polyreactivity
QVQLVESGAGLVQAGGSLRLSCAASGRTFSRNAMGWYRQPPGKERELVATISRGGGITFYADSVKGRYTISRDNAKNTVYLQMNSLKPEDTAVYYCNADVRYVGLRRIVDYWGQGTQVTVSS	high polyreactivity
QVQLVESWGGLVQAGGSLRLSCAASGFTFFYYDMGWYRQAPGKERQLVAAITWRGGRTYYADSVKGRFTISRDNAKNTVYLQMNSLKPEDTAVYYCNAYWGYAKVGQFDYWGQGTQVTVSS	high polyreactivity
QVQLVESGGGLVQAGGSLRLSCAASGSILYTYAMGWYRQSPGKERELVAAISRGGGSTYYADSVKGRFTISRDNAKNSVYLQMNSLKPEDSAVYYCAARKLTRGSGRDDEYWGQGTQVTVSS	high polyreactivity
